In patent US20250304711A1, “Methods and Compositions for Treating Obesity, Obesity-Related Diseases, Fatty Liver and Fatty Liver Associated Diseases with Anti-CD24 Agents” (The Board of Trustees of the Leland Stanford Junior …, priority 2022, published 2025):

How the values were obtained:
[1] = tested on: Huh7D cells; experiment: Steatosis in Huh7D cells cultured in fatty medium, Nile Red stain; format: cell-based; conditions: Huh7D cells 4 days in fatty medium, then treated 3 days in fatty medium; Nile Red fluorescence; agents at 1 μg/mL unless otherwise specified
Procedure: FIG. 1A-1D: Relative lipid accumulation of Huh 7D cells when cultured on fatty medium and treated with various anti-CD24 agents. Agents were added at 1 μg/mL unless otherwise specified as in the Fab. MOSW1, SWA11, ML5, SN3: mouse anti human CD24 antibodies; MOSW2: SWA11 antibody with point mutations to silent complement activity; MOSW3: SWA11 antibody with point mutations to silent complement activity, antibody-dependent cytotoxicity (ADCC) and antibody-dependent cellular phagocytosis (ADCP); Fab: Fab of SWA11 antibody, G7s: scFv against human and mouse CD24; TW2, TW6, V2, V3, V4, V6, V7, V8, V9, V10, V14, V15, V16: different humanized anti-CD24 antibodies; hIgG: human IgG isotype control. FIG. 1A: anti-steatosis activity of SWA-11, Fab, TW2, TW6 and G7S; FIG. 1B: anti-steatosis activity of V2, V3, V4, V6, V7, V8, V9, V10, V14, V15, V16; FIG. 1C: anti-steatosis of SWA11, Fab, ML5, SN3, MOSW1, MOSW2, MOSW3; FIG. 1D: anti-steatosis of 3 small molecules that bind CD24.
Specifically, Huh7 cells, which are liver hepatoma cells, were cultured in 1% DMSO (Huh7D cells) and then supplemented with fatty medium to induce steatosis. […] To determine the degree of steatosis, cells were stained with 1 mg/ml Nile Red solution (Sigma Aldrich) in cell culture medium for 15 mins at 37° C. and florescence signal was measured.

[2] = tested on: NSG mice with humanized livers; experiment: NSG mice with humanized livers on HFD: graft survival, human albumin, CT; format: in vivo, mouse
Procedure: In order to determine the effect of anti-CD24 agent in a more physiologic model of human fatty liver disease, we used a mouse model in which human liver can be engrafted. Briefly, NSG mice with humanized livers were prepared using the RAAPID-TKG method. These mice contain chimeric livers that harbor both murine and human hepatocytes and the degree of human liver engraftment can be ascertained by measuring serum human albumin. 2 mice with similar degrees of human liver engraftment, as measured by baseline serum human albumin, were placed on HFD for 6 weeks and then treated with either IgG control or an anti-CD24 antibody—which we term MOSW3—whose Fc has been engineered to contain point mutations that abrogate ADCC, ADCP, as well as compliment binding activity, i.e., Fc-silent antibody. Antibodies were dosed at 25 μg twice a week.

| Molecule | anti-steatosis efficacy (relative lipid accumulation) [1] | steatosis on liver CT scan ([2]; 3 weeks post treatment, IgG treated mouse vs MOSW3 treated mouse) | human liver graft survival ([2]; HFD 6 weeks, then 25 μg twice a week, vs IgG control) | serum human albumin ([2]; humanized-liver NSG mice, HFD 6 weeks, then 25 μg twice a week, weekly serum for 3 weeks, vs IgG control) |
| --- | --- | --- | --- | --- |
| O=C(O)c1ccccc1C(=O)c1cn(-c2ccc(F)cc2)[n+]([O-])n1 [A] | anti-steatosis efficacy | – | – | – |
| Cc1cccc(-n2nc([N+](=O)[O-])c(NCc3ccc(F)cc3)[n+]2[O-])c1 [B] | anti-steatosis efficacy | – | – | – |
| MOSW3: SWA11 mouse IgG2a, C1q and Fc silenced (L234A, L235A, K320A, K322A, P329G); SEQ ID NO: 17 and 34 (antibody) heavy: DVQLQESGPDLVKPSQSLSLTCTVTGYSITSGYTWHWIRQFPGNTVEWMGYIQYTGSTRYNPALRGRLSISRDTSKNQFFLQLISVTTADTGTYFCARGTTASFDYWGQGTTLTVASAKTTAPSVYPLAPVCGDTTGSSVTLGCLVKGYFPEPVTLTWNSGSLSSGVHTFPAVLQSDLYTLSSSVTVTSSTWPSQSITCNVAHPASSTKVDKKIEPRGPTIKPCPPCKCPAPNAAGGPSVFIFPPKIKDVLMISLSPIVTCVVVDVSEDDPDVQISWFVNNVEVHTAQTQTHREDYNSTLRVVSALPIQHQDWMSGKEFACAVNNKDLGAPIERTISKPKGSVRAPQVYVLPPPEEEMTKKQVTLTCMVTDFMPEDIYVEWTNNGKTELNYKNTEPVLDSDGSYFMYSKLRVEKKNWVERNSYSCSVVHEGLHNHHTTKSFSRTPGK light: DIVMSQSPSSLNVSVGEKVTMRCRSSQSLLYSSDQKNYLTWYQQKPGQSPKLLISWASTRASGVPDRFTGSGSGTDFTLTISSVKAEDLGVYYCQQYFIYPLTFGVGTKLGLKRADAAPTVSIFPPSSEQLTSGGASVVCFLNNFYPKDINVKWKIDGSERQNGVLNSWTDQDSKDSTYSMSSTLTLTKDEYERHNSYTCEATHKTSTSPIVKSFNRNEC | – | The IgG treated mouse showed higher level of steatosis (FIG. 9B) compared to the MOSW3 treated mouse | longer graft survival | maintenance of serum human albumin |
